According to patent US20210388087A1 (Chugai, published 2021):
Numbering of substitutions follows the chain as printed.

B1: CE115HA000 K43E (antibody, human IgG1, kappa, L234A L235A, N297A, name in Kabat numbering)
heavy: QVQLVESGGGVVQPGRSLRLSCAASGFTFSNAWMHWVRQAPGEGLEWVAQIKAKSNNYATYYAESVKGRFTISRDDSKNSLYLQMNSLKTEDTAVYYCRYVHYGAYYGVDAWGQGTTVTVSSASTKGPSVFPLAPSSKSTSGGTAALGCLVKDYFPEPVTVSWNSGALTSGVHTFPAVLQSSGLYSLSSVVTVPSSSLGTQTYICNVNHKPSNTKVDKKVEPKSCDKTHTCPPCPAPEAAGGPSVFLFPPKPKDTLMISRTPEVTCVVVDVSHEDPEVKFNWYVDGVEVHNAKTKPREEQYASTYRVVSVLTVLHQDWLNGKEYKCKVSNKALPAPIEKTISKAKGQPREPQVYTLPPSRCELTKNQVSLSCAVKGFYPSDIAVEWESNGQPENNYKTTPPVLDSDGSFFLVSKLTVDKSRWQQGNVFSCSVMHEALHNHYTQKSLSLSPDYKDDDDK
chain: EPKSSDKTHTCPPCPAPELLGGPSVFLFPPKPKDTLMISRTPEVTCVVVDVSHEDPEVKFNWYVDGVEVHNAKTKPREEQYNSTYRVVSVLTVLHQDWLNGKEYKCKVSNKALPAPIEKTISKAKGQPREPQVCTLPPSRDELTKNQVSLWCLVKGFYPSDIAVEWESNGQPENNYKTTPPVLDSDGSFFLYSKLTVDKSRWQQGNVFSCSVMHEALHNRYTQKSLSLSP
light: DIVMTQSPLSLPVTPGEPASISCRSSQSLVHSNRNTYLHWYQQKPGQAPRLLIYKVSNRFSGVPDRFSGSGSGTDFTLKISRVEAEDVGVYYCGQGTQVPYTFGQGTKLEIKRTVAAPSVFIFPPSDEQLKSGTASVVCLLNNFYPREAKVQWKVDNALQSGNSQESVTEQDSKDSTYSLSSTLTLSKADYEKHKVYACEVTHQGLSSPVTKSFNRGEC
notes: one-arm antibody
B2: CE115HA000 K52W (antibody, human IgG1, kappa, L234A L235A, N297A, name in Kabat numbering)
heavy: B1 heavy with E43K, K52W
chain: B1 chain
light: B1 light
notes: one-arm antibody
B3: CE115HA000 K52S (antibody, human IgG1, kappa, L234A L235A, N297A, name in Kabat numbering)
heavy: B1 heavy with E43K, K52S
chain: B1 chain
light: B1 light
notes: one-arm antibody
B4: CE115HA000 K43Q (antibody, human IgG1, kappa, L234A L235A, N297A, name in Kabat numbering)
heavy: B1 heavy with E43Q
chain: B1 chain
light: B1 light
notes: one-arm antibody
B5: CE115HA000 K52N (antibody, human IgG1, kappa, L234A L235A, N297A, name in Kabat numbering)
heavy: B1 heavy with E43K, K52N
chain: B1 chain
light: B1 light
notes: one-arm antibody
B6: CE115HA000 K52E (antibody, human IgG1, kappa, L234A L235A, N297A, name in Kabat numbering)
heavy: B1 heavy with E43K, K52E
chain: B1 chain
light: B1 light
notes: one-arm antibody
B7: CE115HA000 L78I (antibody, human IgG1, kappa, L234A L235A, N297A, name in Kabat numbering)
heavy: B1 heavy with E43K, L81I
chain: B1 chain
light: B1 light
notes: one-arm antibody
B8: CE115HA000 K64S (antibody, human IgG1, kappa, L234A L235A, N297A, name in Kabat numbering)
heavy: B1 heavy with E43K, K67S
chain: B1 chain
light: B1 light
notes: one-arm antibody
B9: CE115HA000 K52bD (antibody, human IgG1, kappa, L234A L235A, N297A, name in Kabat numbering)
heavy: B1 heavy with E43K, K54D
chain: B1 chain
light: B1 light
notes: one-arm antibody
B10: CE115HA000 K52D (antibody, human IgG1, kappa, L234A L235A, N297A, name in Kabat numbering)
heavy: B1 heavy with E43K, K52D
chain: B1 chain
light: B1 light
notes: one-arm antibody
B11: CE115HA000 K52bQ (antibody, human IgG1, kappa, L234A L235A, N297A, name in Kabat numbering)
heavy: B1 heavy with E43K, K54Q
chain: B1 chain
light: B1 light
notes: one-arm antibody
B12: CE115HA000 K64A (antibody, human IgG1, kappa, L234A L235A, N297A, name in Kabat numbering)
heavy: B1 heavy with E43K, K67A
chain: B1 chain
light: B1 light
notes: one-arm antibody
B13: CE115HA000 N31F (antibody, human IgG1, kappa, L234A L235A, N297A, name in Kabat numbering)
heavy: B1 heavy with N31F, E43K
chain: B1 chain
light: B1 light
notes: one-arm antibody
B14: CE115HA000 K52bY (antibody, human IgG1, kappa, L234A L235A, N297A, name in Kabat numbering)
heavy: B1 heavy with E43K, K54Y
chain: B1 chain
light: B1 light
notes: one-arm antibody
B15: CE115HA000 K64E (antibody, human IgG1, kappa, L234A L235A, N297A, name in Kabat numbering)
heavy: B1 heavy with E43K, K67E
chain: B1 chain
light: B1 light
notes: one-arm antibody
B16: CE115HA000 K52Y (antibody, human IgG1, kappa, L234A L235A, N297A, name in Kabat numbering)
heavy: B1 heavy with E43K, K52Y
chain: B1 chain
light: B1 light
notes: one-arm antibody
B17: CE115HA000 K52H (antibody, human IgG1, kappa, L234A L235A, N297A, name in Kabat numbering)
heavy: B1 heavy with E43K, K52H
chain: B1 chain
light: B1 light
notes: one-arm antibody
B18: CE115HA000 N31G (antibody, human IgG1, kappa, L234A L235A, N297A, name in Kabat numbering)
heavy: B1 heavy with N31G, E43K
chain: B1 chain
light: B1 light
notes: one-arm antibody
B19: CE115HA000 K52bS (antibody, human IgG1, kappa, L234A L235A, N297A, name in Kabat numbering)
heavy: B1 heavy with E43K, K54S
chain: B1 chain
light: B1 light
notes: one-arm antibody
B20: CE115HA000 K52bR (antibody, human IgG1, kappa, L234A L235A, N297A, name in Kabat numbering)
heavy: B1 heavy with E43K, K54R
chain: B1 chain
light: B1 light
notes: one-arm antibody
B21: CE115HA000 K64Q (antibody, human IgG1, kappa, L234A L235A, N297A, name in Kabat numbering)
heavy: B1 heavy with E43K, K67Q
chain: B1 chain
light: B1 light
notes: one-arm antibody
B22: CE115HA000 K52I (antibody, human IgG1, kappa, L234A L235A, N297A, name in Kabat numbering)
heavy: B1 heavy with E43K, K52I
chain: B1 chain
light: B1 light
notes: one-arm antibody
B23: CE115HA000 N31D (antibody, human IgG1, kappa, L234A L235A, N297A, name in Kabat numbering)
heavy: B1 heavy with N31D, E43K
chain: B1 chain
light: B1 light
notes: one-arm antibody
B24: CE115HA000 K52bA (antibody, human IgG1, kappa, L234A L235A, N297A, name in Kabat numbering)
heavy: B1 heavy with E43K, K54A
chain: B1 chain
light: B1 light
notes: one-arm antibody
B25: CE115HA000 K64D (antibody, human IgG1, kappa, L234A L235A, N297A, name in Kabat numbering)
heavy: B1 heavy with E43K, K67D
chain: B1 chain
light: B1 light
notes: one-arm antibody
B26: CE115HA000 K75T (antibody, human IgG1, kappa, L234A L235A, N297A, name in Kabat numbering)
heavy: B1 heavy with E43K, K78T
chain: B1 chain
light: B1 light
notes: one-arm antibody
B27: CE115HA000 N31A (antibody, human IgG1, kappa, L234A L235A, N297A, name in Kabat numbering)
heavy: B1 heavy with N31A, E43K
chain: B1 chain
light: B1 light
notes: one-arm antibody
B28: CE115HA000 K52F (antibody, human IgG1, kappa, L234A L235A, N297A, name in Kabat numbering)
heavy: B1 heavy with E43K, K52F
chain: B1 chain
light: B1 light
notes: one-arm antibody
B29: CE115HA000 N31H (antibody, human IgG1, kappa, L234A L235A, N297A, name in Kabat numbering)
heavy: B1 heavy with N31H, E43K
chain: B1 chain
light: B1 light
notes: one-arm antibody
B30: CE115HA000 K75R (antibody, human IgG1, kappa, L234A L235A, N297A, name in Kabat numbering)
heavy: B1 heavy with E43K, K78R
chain: B1 chain
light: B1 light
notes: one-arm antibody
B31: CE115HA000 K52R (antibody, human IgG1, kappa, L234A L235A, N297A, name in Kabat numbering)
heavy: B1 heavy with E43K, K52R
chain: B1 chain
light: B1 light
notes: one-arm antibody
B32: CE115HA000 K52bN (antibody, human IgG1, kappa, L234A L235A, N297A, name in Kabat numbering)
heavy: B1 heavy with E43K, K54N
chain: B1 chain
light: B1 light
notes: one-arm antibody
B33: CE115HA000 K52bL (antibody, human IgG1, kappa, L234A L235A, N297A, name in Kabat numbering)
heavy: B1 heavy with E43K, K54L
chain: B1 chain
light: B1 light
notes: one-arm antibody

Target: T1, CD3 epsilon homodimer protein (UniProt P07766 23-126)
T1 construct: also called CD3 (CD3 epsilon)
Test: SPR, CD3 epsilon homodimer on chip, one-arm antibody as analyte;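 also: surface plasmon resonance at 25 °C with CD3 epsilon homodimer amine-coupled to a CM4 sensor chip, antibody injected as analyte, HBS-EP+ as running buffer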

T1 sequence (P07766 23-126): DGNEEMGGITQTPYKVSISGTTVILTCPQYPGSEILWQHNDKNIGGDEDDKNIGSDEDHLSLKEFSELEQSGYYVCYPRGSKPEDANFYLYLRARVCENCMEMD

Binder	KD ratio (KD of CE115HA000/KD of altered form)
B1	0.88
B2	2.69
B3	92.1
B4	0.89
B5	3.29
B6	19.4
B7	1.08
B8	0.85
B9	0.56
B10	166
B11	0.62
B12	0.81
B13	1.24
B14	0.61
B15	0.84
B16	6.47
B17	2.65

Binder	KD ratio (KD of CE115HA000/KD of altered form)
B18	1.37
B19	0.58
B20	0.91
B21	0.87
B22	3.54
B23	1.14
B24	0.58
B25	0.76
B26	0.75
B27	0.96
B28	4.04
B29	0.96
B30	0.88
B31	0.8
B32	0.43
B33	0.61
